Results: US20160031999A1 (CSL, published 2016)
Where a chain is given by its changes, count along the chain named. Blank lines part the entries; values can stand above or below the binder they belong to.

Tests used:
[1] = target: T1, human IL-11Rα (form used in the assay not stated) (human, UniProt Q14626 23-363, limits assumed); experiment: Biacore, pH 8.5, 37°C
T1 construct: also called hIL-11R; hIL-11Rα
T1 sequence: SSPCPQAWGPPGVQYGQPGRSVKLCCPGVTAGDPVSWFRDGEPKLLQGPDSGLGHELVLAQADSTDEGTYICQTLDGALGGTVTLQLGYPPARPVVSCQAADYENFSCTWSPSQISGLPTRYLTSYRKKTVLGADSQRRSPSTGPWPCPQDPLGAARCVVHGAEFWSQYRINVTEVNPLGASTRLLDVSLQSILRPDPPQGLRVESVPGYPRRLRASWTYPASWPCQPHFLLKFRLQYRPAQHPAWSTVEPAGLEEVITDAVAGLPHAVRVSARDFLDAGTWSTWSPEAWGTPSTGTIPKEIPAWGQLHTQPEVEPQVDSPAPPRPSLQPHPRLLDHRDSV

[2] = target: T2, human IL-11Rα on transfected cells (human, UniProt Q14626 23-422); experiment: cell-based or functional assay
T2 sequence: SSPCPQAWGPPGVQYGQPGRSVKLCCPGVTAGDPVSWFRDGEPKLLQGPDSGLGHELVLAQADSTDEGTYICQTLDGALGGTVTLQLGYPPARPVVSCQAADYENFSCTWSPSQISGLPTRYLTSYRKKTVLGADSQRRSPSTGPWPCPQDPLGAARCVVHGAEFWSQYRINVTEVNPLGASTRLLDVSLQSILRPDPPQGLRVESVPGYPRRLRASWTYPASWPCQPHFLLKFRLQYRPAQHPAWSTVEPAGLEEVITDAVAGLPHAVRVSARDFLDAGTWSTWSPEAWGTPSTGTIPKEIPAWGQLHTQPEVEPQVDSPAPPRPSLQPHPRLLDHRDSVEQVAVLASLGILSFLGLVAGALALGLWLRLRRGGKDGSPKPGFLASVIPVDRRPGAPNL

Kd [1]: 735 pM
Fold increase in potency relative to 8E2 [2]: 5.7 fold
IC50 [2]: 0.26 µg/mL
B1: hu8E2-TS-115 (antibody, V domains shown)
VH: EVQLLESGGGLVQPGGSLRLSCAASGFTFSWYSMTWVRQAPGKGLEWVSSIVPHGDLTQYADSVKGRFTISRDNSKNTLYLQMNSLRAEDTAVYYCAKGPGWGSFDLWGRGTLVTVSS
VL: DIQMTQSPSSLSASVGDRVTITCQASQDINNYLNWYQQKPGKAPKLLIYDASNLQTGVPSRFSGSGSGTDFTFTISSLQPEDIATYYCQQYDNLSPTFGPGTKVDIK

Kd [1]: 471 pM
Fold increase in potency relative to 8E2 [2]: 1.5 fold
IC50 [2]: 0.42 µg/mL
B2: hu8E2-TS-140 (antibody, V domains shown)
VH: B1 VH with H54S, D56G, L57H, G99P, P100N, G101D, S104L
VL: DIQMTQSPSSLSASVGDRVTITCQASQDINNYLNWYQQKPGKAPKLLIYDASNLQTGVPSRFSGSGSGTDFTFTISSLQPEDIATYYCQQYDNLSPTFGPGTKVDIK

Kd [1]: 1850 pM
Fold increase in potency relative to 8E2 [2]: 1.5 fold
IC50 [2]: 0.34 µg/mL
B3: hu8E2-TS-215 (antibody, V domains shown)
VH: B1 VH with H54S, D56G, L57H, D106W, L107Q
VL: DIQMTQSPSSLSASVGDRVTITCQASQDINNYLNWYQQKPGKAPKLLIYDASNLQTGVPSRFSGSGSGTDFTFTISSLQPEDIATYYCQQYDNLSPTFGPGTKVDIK

Kd [1]: 634 pM
Fold increase in potency relative to 8E2 [2]: 2.6 fold
IC50 [2]: 0.2 µg/mL
B4: hu8E2-TS-221 (antibody, V domains shown)
VH: B1 VH with H54S, D56G, L57H, D106W, L107Y
VL: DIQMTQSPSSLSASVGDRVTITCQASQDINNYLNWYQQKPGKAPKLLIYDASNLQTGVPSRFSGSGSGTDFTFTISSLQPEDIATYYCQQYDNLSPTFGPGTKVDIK

Kd [1]: 525 pM
Fold increase in potency relative to 8E2 [2]: 4.8 fold
IC50 [2]: 0.2 µg/mL
B5: hu8E2-TS-135 (antibody, V domains shown)
VH: B1 VH with H54S, D56G, L57H, G99P, P100L, G101D, S104L
VL: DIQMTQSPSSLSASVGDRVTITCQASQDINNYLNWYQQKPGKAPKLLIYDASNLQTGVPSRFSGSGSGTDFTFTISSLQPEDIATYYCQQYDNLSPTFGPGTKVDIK

Kd [1]: 416 pM
Fold increase in potency relative to 8E2 [2]: 1.6 fold
IC50 [2]: 0.39 µg/mL
B6: hu8E2-TS-143 (antibody, V domains shown)
VH: B1 VH with H54S, D56G, L57H, G99P, P100H, G101D, S104L
VL: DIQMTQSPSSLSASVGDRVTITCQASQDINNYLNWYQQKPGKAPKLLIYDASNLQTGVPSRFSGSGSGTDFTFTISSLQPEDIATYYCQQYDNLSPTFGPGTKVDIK

Kd [1]: 1110 pM
Fold increase in potency relative to 8E2 [2]: 1.6 fold
IC50 [2]: 0.31 µg/mL
B7: hu8E2-TS-214 (antibody, V domains shown)
VH: B1 VH with H54S, D56G, L57H, D106W, L107F
VL: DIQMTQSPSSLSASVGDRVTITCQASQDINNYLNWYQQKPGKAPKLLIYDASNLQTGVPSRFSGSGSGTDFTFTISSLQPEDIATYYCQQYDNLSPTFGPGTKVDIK

Kd [1]: 242 pM
Fold increase in potency relative to 8E2 [2]: 2.4 fold
IC50 [2]: 0.26 µg/mL
B8: hu8E2-TS-151 (antibody, V domains shown)
VH: B1 VH with H54S, D56G, L57H, G99P, P100H, G101D, S104R
VL: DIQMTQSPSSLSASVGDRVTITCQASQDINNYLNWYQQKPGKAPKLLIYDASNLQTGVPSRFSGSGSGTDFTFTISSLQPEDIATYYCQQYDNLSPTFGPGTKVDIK

Kd [1]: 232 pM
Fold increase in potency relative to 8E2 [2]: 6 fold
IC50 [2]: 0.16 µg/mL
B9: hu8E2-TS-136 (antibody, V domains shown)
VH: B1 VH with H54S, D56G, L57H, G99P, P100L, G101D, S104R
VL: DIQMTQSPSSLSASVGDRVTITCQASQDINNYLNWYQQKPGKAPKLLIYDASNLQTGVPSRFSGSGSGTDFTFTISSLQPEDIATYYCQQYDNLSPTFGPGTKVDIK

Kd [1]: 513 pM
Fold increase in potency relative to 8E2 [2]: 4.1 fold
IC50 [2]: 0.23 µg/mL
B10: hu8E2-TS-133 (antibody, V domains shown)
VH: B1 VH with H54S, D56G, L57H, G99P, P100V, G101D, S104R
VL: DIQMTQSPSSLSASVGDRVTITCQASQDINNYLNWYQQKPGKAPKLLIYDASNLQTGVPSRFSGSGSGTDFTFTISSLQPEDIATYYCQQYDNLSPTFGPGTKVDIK

Kd [1]: 1910 pM
Fold increase in potency relative to 8E2 [2]: 3.3 fold
IC50 [2]: 0.16 µg/mL
B11: hu8E2-TS-222 (antibody, V domains shown)
VH: B1 VH with H54S, D56G, L57H, S104T, D106A, L107Y
VL: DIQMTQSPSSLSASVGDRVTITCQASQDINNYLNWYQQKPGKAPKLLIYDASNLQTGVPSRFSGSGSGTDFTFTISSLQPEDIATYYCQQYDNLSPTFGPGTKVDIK

Kd [1]: 1910 pM
Fold increase in potency relative to 8E2 [2]: 1.2 fold
IC50 [2]: 0.39 µg/mL
B12: hu8E2-TS-224 (antibody, V domains shown)
VH: B1 VH with H54S, D56G, L57H, D106W, L107T
VL: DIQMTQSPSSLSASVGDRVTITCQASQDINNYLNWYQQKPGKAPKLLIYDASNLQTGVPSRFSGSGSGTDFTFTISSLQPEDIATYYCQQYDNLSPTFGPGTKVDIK

Kd [1]: 631 pM
Fold increase in potency relative to 8E2 [2]: 4.9 fold
IC50 [2]: 0.13 µg/mL
B13: hu8E2-TS-156 (antibody, V domains shown)
VH: B1 VH with H54S, D56G, L57H, G99P, P100E, G101D, S104R
VL: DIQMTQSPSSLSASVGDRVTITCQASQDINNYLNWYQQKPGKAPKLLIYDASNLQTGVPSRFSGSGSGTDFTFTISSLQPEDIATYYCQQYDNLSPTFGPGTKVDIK

Kd [1]: 520 pM
Fold increase in potency relative to 8E2 [2]: 4.3 fold
IC50 [2]: 0.22 µg/mL
B14: hu8E2-TS-134 (antibody, V domains shown)
VH: B1 VH with H54S, D56G, L57H, G99P, P100E, G101D, S104L
VL: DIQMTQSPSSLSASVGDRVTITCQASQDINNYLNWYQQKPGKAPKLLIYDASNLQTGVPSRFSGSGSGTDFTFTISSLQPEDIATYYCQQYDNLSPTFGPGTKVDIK

Kd [1]: 4090 pM
Fold increase in potency relative to 8E2 [2]: 1.4 fold
IC50 [2]: 0.35 µg/mL
B15: hu8E2-TS-303 (antibody, V domains shown)
VH: B1 VH with H54S, D56G, L57H
VL: DIQMTQSPSSLSASVGDRVTITCQASQDVDYWVEWYQQKPGKAPKLLIYDASNLQTGVPSRFSGSGSGTDFTFTISSLQPEDIATYYCQQYDNLSPTFGPGTKVDIK

Kd [1]: 1390 pM
Fold increase in potency relative to 8E2 [2]: 2.7 fold
IC50 [2]: 0.19 µg/mL
B16: hu8E2-TS-218 (antibody, V domains shown)
VH: B1 VH with H54S, D56G, L57H, D106W, L107E
VL: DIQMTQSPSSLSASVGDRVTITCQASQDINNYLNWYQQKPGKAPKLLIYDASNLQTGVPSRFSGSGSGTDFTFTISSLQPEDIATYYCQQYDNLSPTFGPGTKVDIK

Kd [1]: 630 pM
Fold increase in potency relative to 8E2 [2]: 4.7 fold
IC50 [2]: 0.2 µg/mL
B17: hu8E2-TS-129 (antibody, V domains shown)
VH: B1 VH with H54S, D56G, L57H, G99P, P100E, G101D, S104M
VL: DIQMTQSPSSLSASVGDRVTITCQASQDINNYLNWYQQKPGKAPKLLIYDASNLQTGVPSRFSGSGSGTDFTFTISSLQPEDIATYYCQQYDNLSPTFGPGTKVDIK
